Laboratory results from patent US7144862B2, “Orally administered peptides to ameliorate atherosclerosis” (The Regents of the University of California, priority 2000, dated 2006).
Entries after “also recorded” stand apart in the source; their conditions may differ. Non-standard residues stand in square brackets, D forms with d. Residues, ends and D or L forms follow the SMILES beside them.

Experiments:
[1] = tested on: human artery wall cell cocultures; test: Lipoproteins from mice given peptide by gavage tested in human artery wall cell cocultures (monocyte chemotactic activity); conditions: for resistance of circulating mouse LDL to oxidation (monocyte chemotactic activity): 100 μg by gavage, LDL receptor-deficient mice, blood 17 hrs later
Procedure: Groups of LDL receptor-deficient mice (n=3) were administered the D-peptides or the saline vehicle by gavage. […] Blood was collected from retroorbital sinus under mild anesthesia 17 hrs later. LDL was isolated from plasma by FPLC. Cocultures of artery wall cells were incubated with medium alone (NO ADDITION), control LDL from normal subjects (LDL), LDL plus control HDL from normal subjects (+HDL). […] The cocultures were incubated for 4 hrs at 37° C. in the presence of 10% LPDS. The supernatants were then discarded, the cocultures were washed and incubated with culture medium without serum or LPDS for an additional 4 hrs. This conditioned medium was collected and analyzed for monocyte chemotactic activity. The values are mean±SD of quadruplicate cocultures.
Blood was collect after 6 hrs, plasma HDL and LDL were isolated by gel filtration (FPLC) and examined in the cocultures. […] Human LDL at 200 μg protein/ml was added to human artery wall cell cocultures together with human HDL (hHDL) at 350 μg protein/ml or mouse HDL (mHDL) at 100 μg cholesterol/ml taken from mice that received saline (Saline Rx) or L-4F (L-4F Rx) or D-4F (D-4F Rx) and monocyte chemotactic activity was determined as described herein. […] On the right, mouse LDL (mLDL) was isolated from mice receiving saline (Saline Rx) or L-4F (L4F Rx) or D-4F (D-4F Rx) and was added at 100 μg cholesterol/ml to the artery wall cell cocultures without HDL and monocyte chemotactic activity determined. Values are mean±SD) for four wells in two independent experiments.
Either saline or 2F synthesized from D amino acids or from L amino acids was instilled in the stomachs of mice by gavage (instillation in the stomach by tube). After gavage the mice were bled and their LDL isolated and added to the human artery wall cell cocultures.
The animals were bled 1.5, 3 or 6 hours later and their HDL, LDL, and VLDL/IDL isolated.
Human aortic endothelial and smooth muscle cells were isolated and cultured as previously described (Id.). Cellular oxidation of LDL in the presence and absence of HDL was determined as described (Id.). Human blood monocytes were isolated after obtaining informed consent and monocyte chemotaxis was determined as described previously^5.

[2] = tested on: red blood cells of LDL receptor deficient mice; test: In vitro red cell lysis after gavage of D peptides; assay type: in vivo, mouse; conditions: 100 μg by gavage, blood 17 and 48 hrs later
Procedure: Red cells were separated by centrifugation, were diluted to 10% hematocrit with PBS and incubated at 37° C. with gentle mixing. Aliquots were removed at time points t=0, 2, 6 and 18 hrs, cell pellets spun down and the optical density due to the released hemoglobin determined.

[3] = tested on: Human aortic wall cocultures; test: LDL plus peptide in vitro in human aortic wall cocultures, monocyte chemotactic activity (Example 2); assay type: cell-based; conditions: control LDL 250 μg/ml plus varying amounts of peptide
Procedure: Human aortic wall cocultures were incubated with medium alone (LDL, NO CELLS or CELLS, NO LDL, see FIG. 9), control LDL from normal subjects at 250 μg/ml (LDL) and LDL plus control HDL from normal subjects at 350 μg/ml (+HDL). Other cocultures were incubated With the control LDL together with varying amounts (micrograms shown on the abscissa) of either D-2F, or L-2F (third panel from the left, 2F) or D-37-pA or L-37pA (last panel on the right, 37pA). The data represent mean±SD of values obtained from quadruplicate cocultures.

[4] = Antibody formation against D-2F (other studies); assay type: in vivo
[5] = Survival, toxicity, body and liver weights after 16 weeks of injection
Procedure: Mice were acquired at six weeks of age, and randomized into groups of 20, except that a negative control group of 10 received no treatments and was given standard rodent chow. At eight weeks of age, the treatment groups were placed on a modified Thomas-Hartroft atherogenic diet (#TD88051; Teklad, Madison, Wis.), and injections were begun. […] Animals were injected intraperitoneally daily for 16 weeks, including weekends and holidays.
At the end of the study (week 16), at the last bleeding, the heart and the liver were excised. […] The livers were removed and weighed.

[6] = Antibody detection by indirect ELISA after 16 weeks of daily injection; assay type: in vivo, mouse; conditions: plasma at conclusion of 16-week injection period
Procedure: To determine whether daily injections of peptides elicited any immune response in mice, indirect ELISA titration (Engvall (1980) Meth. Enzymol. 70:419–439) was carried out with plasma taken from mice at the time of organ collection (following sixteen weeks of daily injection). Plates were coated with the injected peptides or MoAI (10 μg/ml). Plates were incubated overnight. After thorough washing with borate buffered saline (pH 8.2) containing 0.05% Tween 20, and blocking with buffer (0.1% gelatin and 0.1% BSA in borate buffer) for 1 h, 200 μl of the diluted mouse plasma (1:100 dilution) samples were serially diluted 1:1 with borate-buffered saline. Biotinylated goat antibody to mouse IgG (0.1 μg/ml) was then added to the wells and the plates were treated with SA-HRP (Streptavidin-horse radish peroxidase) for an hour and developed with ABTS and peroxide as substrate. The plates were incubated overnight at room temperature after every addition of antigen/antibody and washed thoroughly with borate buffered saline (pH 8.2) containing 0.05% Tween 20, and blocked with buffer (0.1% gelatin and 0.1% BSA in borate buffer) for 1 h before the next addition.

[7] = Plasma cholesterol lipoprotein profiles (CLiP); assay type: in vivo, mouse; conditions: 16 weeks atherogenic diet, daily i.p.
Procedure: Plasma cholesterol lipoprotein profiles were measured using our recently-developed CLiP method (Garber et al. (2000) J. Lipid Res. 41:1020–1026). Briefly, 5 to 10 μl of plasma were analyzed using a single Superose 6 (Pharmacia, Piscataway N.J.) column. Immediately following the column, cholesterol reagent was introduced through a mixing tee, and the eluent:reagent mixture entered a post-column reaction coil. Cholesterol content of the eluent mixture was spectrophotometrically detected at 500 nm, and data points were collected into a computer. The resulting profiles were decomposed into component peaks and analyzed for relative area using PeakFit (SPSS Science, Chicago, Ill.); absolute cholesterol values for total cholesterol and each component peak were determined by comparison with a control sample of known values. In some cases fractions were collected to determine distribution of radioactivity. The CLiP method allowed analysis of individual mouse samples, avoiding the use of pooled samples.

[8] = tested on: C57BL/6J mice fed an atherogenic diet; test: Aortic lesion formation, daily intraperitoneal injection for 16 weeks, atherogenic diet; assay type: in vivo, mouse; conditions: 5F 20 μg or MoAI 50 μg daily i.p.
Procedure: The livers were removed and weighed.
Histological evaluations were performed according to the method of Paigen et al. (Paigen et al. (1990) Arteriosclerosis 10: 316–323) with some modifications. Briefly, hearts were fixed for at least one week in the phosphate-buffered formaldehyde solution. After removing the lower ⅔ of the hearts, the remaining tissue was frozen in OCT medium (Tissue-Tek, Miles Inc., Elkhart, Ind.) and sectioned in a cryostat at −20° C. Alternate 20 μm sections were saved on slides, and observed for the beginning of the aortic root. Sections were then collected for an additional 600 μm, or until the aortic cross-section was rounded and the valve cusps were no longer evident. Slides were stained with Oil Red O, and counterstained with hematoxylin. Stained lesion cross-sectional areas were measured in consecutive slides 80 μm apart by image analysis (SigmaScan Pro, SPSS Scientific, Chicago, Ill.), and the average lesion area was determined for each aortic sinus over the 400 μm length (five slides) providing the greatest mean lesion area.

[9] = mouse, in vivo
Procedure: The 5F peptide, MoAI, and human apo A-I were labeled with ^125I by the method of Bilheimer et al. (1972) Biochim. Biophys. Acta 260: 212–221. Mice were placed on a modified Thomas-Hartroft atherogenic diet (#TD88051; Teklad, Madison, Wis.) for four weeks at which time daily intraperitoneal injections of peptide or protein dissolved in 200 μl phosphate-buffered saline (PBS) were begun. Animals injected with MoAI or human apo A-I received 50 μg per animal; those injected with 5F received 20 μg. Animals were not fasted for the kinetic studies and blood samples were taken under xylazine:ketamine anesthesia from the retro-orbital sinus at 15, 30, and 45 minutes, and 1, 1.5, 2, 3, 4, 6, 8, 12, and 24 hours following injection. Each animal provided three blood samples at different time points (all retro-orbital and alternating eyes), and at least three samples were collected (from different animals) at each time point. Samples were collected into heparinized capillary tubes, then placed in microcentrifuge tubes; the plasma was separated by centrifugation. Duplicate 10 μl aliquots of each sample were taken for radioactivity determination, using gamma counting (Cobra; Packard Instruments, Downers Grove, Ill.) for 10 minutes per sample. Total plasma volume was calculated as 4.2% body weight. Each sample was expressed as percent of injected CPM in total plasma. Free ^125I was determined by trichloroacetic acid (TCA) precipitation (1 ml of 10% TCA per 10 μl plasma sample). Fitting to the kinetic model was done using all data points, rather than averages at each time point (PKAnalyst, MicroMath Scientific Software, Salt Lake City, Utah).
Treatment groups were compared by two-tailed t-tests or one way analysis of variance (where the data were normally distributed), or by one way analysis of variance on ranks (SigmaStat; SPSS Science, Chicago, Ill.). Kinetics of peptide or protein turnover were analyzed by fitting to a first order one-compartment kinetic model assuming non-equal input and output rates (PKAnalyst; MicroMath Scientific Software, Salt Lake City, Utah).

[10] = after 16 weeks, atherogenic diet, daily i.p., mean ± SEM

## CC(C)C[C@@H](NC(=O)[C@@H](Cc1c[nH]c2ccccc12)NC(=O)[C@H](N)CC(=O)O)C(=O)N[C@H](CCCCN)C(=O)N[C@H](C)C(=O)N[C@H](Cc1ccccc1)C(=O)N[C@H](Cc1ccc(O)cc1)C(=O)N[C@H](CC(=O)O)C(=O)N[C@H](CCCCN)C(=O)N[C@@H](C(=O)N[C@H](C)C(=O)N[C@H](CCC(=O)O)C(=O)N[C@H](CCCCN)C(=O)N[C@H](CC(C)C)C(=O)N[C@H](CCCCN)C(=O)N[C@H](CCC(=O)O)C(=O)N[C@H](C)C(=O)N[C@H](Cc1ccccc1)C(=O)N1CCC[C@@H]1C(=O)N[C@H](CC(=O)O)C(=O)N[C@H](Cc1c[nH]c2ccccc12)C(=O)N[C@H](CC(C)C)C(=O)N[C@H](CCCCN)C(=O)N[C@H](C)C(=O)N[C@H](Cc1ccccc1)C(=O)N[C@H](Cc1ccc(O)cc1)C(=O)N[C@H](CC(=O)O)C(=O)N[C@H](CCCCN)C(=O)N[C@@H](C(=O)N[C@H](C)C(=O)N[C@H](CCC(=O)O)C(=O)N[C@H](CCCCN)C(=O)N[C@H](CC(C)C)C(=O)N[C@H](CCCCN)C(=O)N[C@H](CCC(=O)O)C(=O)N[C@H](C)C(=O)N[C@H](Cc1ccccc1)C(=O)O)C(C)C)C(C)C [Peptide D-37pA] (H-[dD][dW][dL][dK][dA][dF][dY][dD][dK][dV][dA][dE][dK][dL][dK][dE][dA][dF][dP][dD][dW][dL][dK][dA][dF][dY][dD][dK][dV][dA][dE][dK][dL][dK][dE][dA][dF]-OH)
[1]
  resistance of circulating mouse LDL to oxidation (monocyte chemotactic activity): resistant to oxidation
[2]
  red cell lysis (hemolysis) after gavage: resistant to hemolysis
[3]
  monocyte chemotactic activity induced by LDL treated with peptide in vitro: significantly different from LDL

## CC(=O)N[C@H](CC(=O)O)C(=O)N[C@H](Cc1c[nH]c2ccccc12)C(=O)N[C@H](CC(C)C)C(=O)N[C@H](CCCCN)C(=O)N[C@H](C)C(=O)N[C@H](Cc1ccccc1)C(=O)N[C@H](Cc1ccc(O)cc1)C(=O)N[C@H](CC(=O)O)C(=O)N[C@H](CCCCN)C(=O)N[C@@H](C(=O)N[C@H](C)C(=O)N[C@H](CCC(=O)O)C(=O)N[C@H](CCCCN)C(=O)N[C@H](CC(C)C)C(=O)N[C@H](CCCCN)C(=O)N[C@H](CCC(=O)O)C(=O)N[C@H](C)C(=O)N[C@H](Cc1ccccc1)C(N)=O)C(C)C [Peptide D-2F, Ac-D-W-L-K-A-F-Y-D-K-V-A-E-K-L-K-E-A-F-NH2] (Ac-[dD][dW][dL][dK][dA][dF][dY][dD][dK][dV][dA][dE][dK][dL][dK][dE][dA][dF]-NH2)
[1]
  resistance of circulating mouse LDL to oxidation (monocyte chemotactic activity): resistant to oxidation
[1]; D versus L form by gavage
  monocyte chemotaxis induced by LDL from mice given 2F by gavage: reduced monocyte chemotaxis
[4]
  antibody formation against the peptide: not seen evidence of antibody formation
[2]
  red cell lysis (hemolysis) after gavage: resistant to hemolysis
[3]
  monocyte chemotactic activity induced by LDL treated with peptide in vitro: significantly different from LDL; also recorded: equally able to block LDL oxidation and LDL-induced monocyte chemotactic activity

B1: Mouse apo A-I: mouse apo A-I isolated from the plasma of C57BL/6J mice (protein, UniProt Q00623 25-264, looked up)
Apolipoprotein A-I: DEPQSQWDKVKDFANVYVDAVKDSGRDYVSQFESSSLGQQLNLNLLENWDTLGSTVSQLQERLGPLTRDFWDNLEKETDWVRQEMNKDLEEVKQKVQPYLDEFQKKWKEDVELYRQKVAPLGAELQESARQKLQELQGRLSPVAEEFRDRMRTHVDSLRTQLAPHSEQMRESLAQRLAELKSNPTLNEYHTRAKTHLKTLGEKARPALEDLRHSLMPMLETLKTQVQSVIDKASETLTAQ
[5]; 16 weeks daily i.p. injection
  toxicity: No toxicity
[5]; [10]
  Body Weight: 21.16 ± 0.34 g
  Liver Weight: 1.72 ± 0.04 g
  Liver: Body (percentage): 8.15 ± 0.23%
[5]; during the prolonged diet studies, groups of 20
  mice died from unexplained causes: Two
[6]
  antibodies against the injected material: No antibodies were detected
[7]
  HDL as percent of total cholesterol: (9.34 ± 1.19%*)
  IDL + LDL as percent of total cholesterol: (42.44 ± 2.46%)
  VLDL as percent of total cholesterol: (48.23 ± 2.75%)
[7]; mean ± SEM
  HDL cholesterol: 19.50 ± 3.07 mg/dL
  IDL + LDL cholesterol: 87.86 ± 8.34 mg/dL
  TC (total cholesterol): 207.45 ± 16.94 mg/dL
  VLDL cholesterol: 100.08 ± 9.73 mg/dL
[8]
  mean lesion cross-sectional area compared with PBS-injected animals: no difference in lesion area
[9]
  Max. % in plasma: 13.5%
[9]; ip
  Time (h) to max. CPM: 1.74 h
  T½: 15.7 h
